Measured values published in FireProtDB (doi:10.1002/pro.5560061014).

B1: Barstar, P11540 (parent)
chain: MKKAVINGEQIRSISDLHQTLKKELALPEYYGENLDALWDCLTGWVEYPLVLEWRQFEQSKQLTENGAESVLQVFREAKAEGCDITIILS

Variants of: B1
Conditions: Bacillus amyloliquefaciens; pH 7.4; 25 °C; Thermal; DSC; Sodium phosphate 50 mM; reversible: yes; structure 1BTA; whole UniProt chain shown

| Variant | heat capacity change of unfolding | unfolding free energy |
| --- | --- | --- |
| C83A | 0.86 kcal/mol/K | 6.1 kcal/mol |

Same assay, conditions: Bacillus amyloliquefaciens; pH 7.4; Thermal; DSC; Sodium phosphate 50 mM; reversible: yes; structure 1BTA; whole UniProt chain shown

| Variant | Tm | change of melting temperature, mutant - wild type (higher = more stable) | heat capacity change of unfolding | unfolding enthalpy (calorimetric) |
| --- | --- | --- | --- | --- |
| C83A | 71.4 °C | -1.4 °C | 0.86 kcal/mol/K | 66 kcal/mol |
